The target in the experiment is Lake Sinai virus 2 capsid protein, full-length (residues 1–520) (Lake Sinai virus 2). Description: cryo-EM structure; purified LSV2 VLPs (30 mg/mL) assembled in vitro in 50 mM HEPES, 300 mM NaCl at pH 6.5, 7.5 or 8.5; T = 4 and T = 3 particles from single datasets, icosahedral and focused refinement.

Where “and” joins values, the source holds several entries; their conditions need not be identical. Equal entries are not always repeated.

Broadly, the stoichiometry N is the number of molecules, sites or subunits per partner or assembly. As for “Lake Sinai virus 2 capsid protein, full-length (residues 1–520) (natural protein)”, the stoichiometry N is 240 copies and 180 copies.

(Values after PMC9892032.)
